T1: human CX3CR1 receptor (human, UniProt P49238 1-355)
T1 construct: Expressed on stably transfected HEK or CHO cells, or endogenous on human PBMC (CD8+ T cells, NK cells); also called HEK-CX3CR1 cells; CHO-CX3CR1 cells
T1 sequence: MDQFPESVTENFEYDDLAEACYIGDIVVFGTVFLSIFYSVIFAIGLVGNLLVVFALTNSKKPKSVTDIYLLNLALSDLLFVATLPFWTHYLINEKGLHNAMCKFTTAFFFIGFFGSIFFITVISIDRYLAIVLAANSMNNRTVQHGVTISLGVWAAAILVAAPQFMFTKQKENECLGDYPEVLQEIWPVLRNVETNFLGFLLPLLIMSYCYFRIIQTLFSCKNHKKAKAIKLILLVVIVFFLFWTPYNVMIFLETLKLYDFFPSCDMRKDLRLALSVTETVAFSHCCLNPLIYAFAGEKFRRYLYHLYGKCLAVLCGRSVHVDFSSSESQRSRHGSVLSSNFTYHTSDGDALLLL


Molecular target: T1, human CX3CR1 receptor
Test: phage display selection on HEK-CX3CR1 cells, elution with soluble CX3CL1
Experimental: Phage particles are represented as cylinders (encapsulated phage genome) with multiple heads (pIII-CX3CL1 mutant fusion). […] (3) Stringent washing was used to remove nonspecifically bound phage. (4) An excess of soluble CX3CL1 (sCX3CL1) was added to remove surface-associated phage. Eluted phages were allowed to infect E. coli, and stocks of selected phages were prepared to be used in a new round of selection (steps 1 to 4).
A phage library of CX3CL1 mutants (10¹⁰ CFU) was directly incubated with 5.10⁶ HEK-CX3CR1 or HEK-CCR5 cells growing in 25 cm² tissue culture flasks (Becton Dickinson, Le Pont de Claix, France) at 37° C. at 5% CO₂ in 5 ml of supplemented RPMI-1640 medium. After 1 h, cells were washed 10 times at room temperature with 10 ml of phosphate-buffered saline (PBS) and then scraped from the plate into 10 ml of PBS-0.5% BSA. Cells were then pelleted and incubated for 20 min on ice in elution buffer consisting of an excess of soluble CX3CL1 (10 μM in 100 μl PBS-BSA). Cells were centrifuged (1000×g for 5 min) and supernatant was mixed with log-phase E. coli TG1 for production and purification of stock phage to be used in further rounds of selection, as described by Hartley et al. (2003, J Virol 77, 6637-44).

Binder | binding result
phage-displayed CX3CL1 mutant with N-terminal sequence ILDNGVA (other, not shown: large carriers, Selected phage clone (antagonist selection); not tested singly) ILDNGVAKCNITCSKMTSKIPVALLIHYQQNQASCGKRAIILETRQHRLFCADPKEQWVKDAMQHLDRQAAALTRNG | binds
phage-displayed CX3CL1 mutant with N-terminal sequence QPLFAVA (other, not shown: large carriers, Selected phage clone (antagonist selection); not tested singly) QPLFAVAKCNITCSKMTSKIPVALLIHYQQNQASCGKRAIILETRQHRLFCADPKEQWVKDAMQHLDRQAAALTRNG | binds
phage-displayed CX3CL1 mutant with N-terminal sequence ILDGGVS (other, not shown: large carriers, Selected phage clone (antagonist selection); not tested singly) ILDGGVSKCNITCSKMTSKIPVALLIHYQQNQASCGKRAIILETRQHRLFCADPKEQWVKDAMQHLDRQAAALTRNG | binds
phage-displayed CX3CL1 mutant with N-terminal sequence ILGRDVA (other, not shown: large carriers, Selected phage clone (antagonist selection); not tested singly) ILGRDVAKCNITCSKMTSKIPVALLIHYQQNQASCGKRAIILETRQHRLFCADPKEQWVKDAMQHLDRQAAALTRNG | binds
phage-displayed CX3CL1 mutant with N-terminal sequence FLQSDVA (other, not shown: large carriers, Selected phage clone (antagonist selection); not tested singly) FLQSDVAKCNITCSKMTSKIPVALLIHYQQNQASCGKRAIILETRQHRLFCADPKEQWVKDAMQHLDRQAAALTRNG | binds
phage-displayed CX3CL1 mutant with N-terminal sequence ILDLGLS (other, not shown: large carriers, Selected phage clone (antagonist selection); not tested singly) ILDLGLSKCNITCSKMTSKIPVALLIHYQQNQASCGKRAIILETRQHRLFCADPKEQWVKDAMQHLDRQAAALTRNG | binds
phage-displayed CX3CL1 mutant with N-terminal sequence ILDLGLT (other, not shown: large carriers, Selected phage clone (antagonist selection); not tested singly) ILDLGLTKCNITCSKMTSKIPVALLIHYQQNQASCGKRAIILETRQHRLFCADPKEQWVKDAMQHLDRQAAALTRNG | binds
phage-displayed CX3CL1 mutant with N-terminal sequence QSLVLP (other, not shown: large carriers, Selected phage clone (antagonist selection); not tested singly) QSLVLPKCNITCSKMTSKIPVALLIHYQQNQASCGKRAIILETRQHRLFCADPKEQWVKDAMQHLDRQAAALTRNG | binds
phage-displayed CX3CL1 mutant with N-terminal sequence VQSVLS (other, not shown: large carriers, Selected phage clone (antagonist selection); not tested singly) VQSVLSKCNITCSKMTSKIPVALLIHYQQNQASCGKRAIILETRQHRLFCADPKEQWVKDAMQHLDRQAAALTRNG | binds
phage-displayed CX3CL1 mutant with N-terminal sequence QLFALS (other, not shown: large carriers, Selected phage clone (antagonist selection); not tested singly) QLFALSKCNITCSKMTSKIPVALLIHYQQNQASCGKRAIILETRQHRLFCADPKEQWVKDAMQHLDRQAAALTRNG | binds

Molecular target: T1, human CX3CR1 receptor
Test: phage display selection on HEK-CX3CR1 cells, recovery of endocytosed phages

Binder | binding result
phage-displayed CX3CL1 mutant with N-terminal sequence AAQGMS (other, not shown: large carriers, Selected phage clone (agonist selection); not tested singly) AAQGMSKCNITCSKMTSKIPVALLIHYQQNQASCGKRAIILETRQHRLFCADPKEQWVKDAMQHLDRQAAALTRNG | binds
phage-displayed CX3CL1 mutant with N-terminal sequence QPYGVS (other, not shown: large carriers, Selected phage clone (agonist selection); not tested singly) QPYGVSKCNITCSKMTSKIPVALLIHYQQNQASCGKRAIILETRQHRLFCADPKEQWVKDAMQHLDRQAAALTRNG | binds
phage-displayed CX3CL1 mutant with N-terminal sequence QPGGVS (other, not shown: large carriers, Selected phage clone (agonist selection); not tested singly) QPGGVSKCNITCSKMTSKIPVALLIHYQQNQASCGKRAIILETRQHRLFCADPKEQWVKDAMQHLDRQAAALTRNG | binds
phage-displayed CX3CL1 mutant with N-terminal sequence QPVALA (other, not shown: large carriers, Selected phage clone (agonist selection); not tested singly) QPVALAKCNITCSKMTSKIPVALLIHYQQNQASCGKRAIILETRQHRLFCADPKEQWVKDAMQHLDRQAAALTRNG | binds
phage-displayed CX3CL1 mutant with N-terminal sequence QPQGLA (other, not shown: large carriers, Selected phage clone (agonist selection); not tested singly) QPQGLAKCNITCSKMTSKIPVALLIHYQQNQASCGKRAIILETRQHRLFCADPKEQWVKDAMQHLDRQAAALTRNG | binds
phage-displayed CX3CL1 mutant with N-terminal sequence QLQGLA (other, not shown: large carriers, Selected phage clone (agonist selection); not tested singly) QLQGLAKCNITCSKMTSKIPVALLIHYQQNQASCGKRAIILETRQHRLFCADPKEQWVKDAMQHLDRQAAALTRNG | binds
phage-displayed CX3CL1 mutant with N-terminal sequence QPSALS (other, not shown: large carriers, Selected phage clone (agonist selection); not tested singly) QPSALSKCNITCSKMTSKIPVALLIHYQQNQASCGKRAIILETRQHRLFCADPKEQWVKDAMQHLDRQAAALTRNG | binds
phage-displayed CX3CL1 mutant with N-terminal sequence NPQALS (other, not shown: large carriers, Selected phage clone (agonist selection); not tested singly) NPQALSKCNITCSKMTSKIPVALLIHYQQNQASCGKRAIILETRQHRLFCADPKEQWVKDAMQHLDRQAAALTRNG | binds
phage-displayed CX3CL1 mutant with N-terminal sequence QPVAVS (other, not shown: large carriers, Selected phage clone (agonist selection); not tested singly) QPVAVSKCNITCSKMTSKIPVALLIHYQQNQASCGKRAIILETRQHRLFCADPKEQWVKDAMQHLDRQAAALTRNG | binds
phage-displayed CX3CL1 mutant with N-terminal sequence QPMGVA (other, not shown: large carriers, Selected phage clone (agonist selection); not tested singly) QPMGVAKCNITCSKMTSKIPVALLIHYQQNQASCGKRAIILETRQHRLFCADPKEQWVKDAMQHLDRQAAALTRNG | binds
phage-displayed CX3CL1 mutant with N-terminal sequence QPQAVS (other, not shown: large carriers, Selected phage clone (agonist selection); not tested singly) QPQAVSKCNITCSKMTSKIPVALLIHYQQNQASCGKRAIILETRQHRLFCADPKEQWVKDAMQHLDRQAAALTRNG | binds
phage-displayed CX3CL1 mutant with N-terminal sequence QSPGMS (other, not shown: large carriers, Selected phage clone (agonist selection); not tested singly) QSPGMSKCNITCSKMTSKIPVALLIHYQQNQASCGKRAIILETRQHRLFCADPKEQWVKDAMQHLDRQAAALTRNG | binds
phage-displayed CX3CL1 mutant with N-terminal sequence GPQAMS (other, not shown: large carriers, Selected phage clone (agonist selection); not tested singly) GPQAMSKCNITCSKMTSKIPVALLIHYQQNQASCGKRAIILETRQHRLFCADPKEQWVKDAMQHLDRQAAALTRNG | binds
phage-displayed CX3CL1 mutant with N-terminal sequence QPSGMS (other, not shown: large carriers, Selected phage clone (agonist selection); not tested singly) QPSGMSKCNITCSKMTSKIPVALLIHYQQNQASCGKRAIILETRQHRLFCADPKEQWVKDAMQHLDRQAAALTRNG | binds
phage-displayed CX3CL1 mutant with N-terminal sequence QPRALP (other, not shown: large carriers, Selected phage clone (agonist selection); not tested singly) QPRALPKCNITCSKMTSKIPVALLIHYQQNQASCGKRAIILETRQHRLFCADPKEQWVKDAMQHLDRQAAALTRNG | binds
phage-displayed CX3CL1 mutant with N-terminal sequence QPSALT (other, not shown: large carriers, Selected phage clone (agonist selection); not tested singly) QPSALTKCNITCSKMTSKIPVALLIHYQQNQASCGKRAIILETRQHRLFCADPKEQWVKDAMQHLDRQAAALTRNG | binds
phage-displayed CX3CL1 mutant with N-terminal sequence QPHGVA (other, not shown: large carriers, Selected phage clone (agonist selection); not tested singly) QPHGVAKCNITCSKMTSKIPVALLIHYQQNQASCGKRAIILETRQHRLFCADPKEQWVKDAMQHLDRQAAALTRNG | binds
phage-displayed CX3CL1 mutant with N-terminal sequence QVQGVT (other, not shown: large carriers, Selected phage clone (agonist selection); not tested singly) QVQGVTKCNITCSKMTSKIPVALLIHYQQNQASCGKRAIILETRQHRLFCADPKEQWVKDAMQHLDRQAAALTRNG | binds
phage-displayed CX3CL1 mutant with N-terminal sequence QPYGMS (other, not shown: large carriers, Selected phage clone (agonist selection); not tested singly) QPYGMSKCNITCSKMTSKIPVALLIHYQQNQASCGKRAIILETRQHRLFCADPKEQWVKDAMQHLDRQAAALTRNG | binds
phage-displayed CX3CL1 mutant with N-terminal sequence QFPGVS (other, not shown: large carriers, Selected phage clone (agonist selection); not tested singly) QFPGVSKCNITCSKMTSKIPVALLIHYQQNQASCGKRAIILETRQHRLFCADPKEQWVKDAMQHLDRQAAALTRNG | binds
phage-displayed CX3CL1 mutant with N-terminal sequence QPVAVA (other, not shown: large carriers, Selected phage clone (agonist selection); not tested singly) QPVAVAKCNITCSKMTSKIPVALLIHYQQNQASCGKRAIILETRQHRLFCADPKEQWVKDAMQHLDRQAAALTRNG | binds
phage-displayed CX3CL1 mutant with N-terminal sequence QPGAVS (other, not shown: large carriers, Selected phage clone (agonist selection); not tested singly) QPGAVSKCNITCSKMTSKIPVALLIHYQQNQASCGKRAIILETRQHRLFCADPKEQWVKDAMQHLDRQAAALTRNG | binds
phage-displayed CX3CL1 mutant with N-terminal sequence QPVGLS (other, not shown: large carriers, Selected phage clone (agonist selection); not tested singly) QPVGLSKCNITCSKMTSKIPVALLIHYQQNQASCGKRAIILETRQHRLFCADPKEQWVKDAMQHLDRQAAALTRNG | binds
phage-displayed CX3CL1 mutant with N-terminal sequence QHLGLS (other, not shown: large carriers, Selected phage clone (agonist selection); not tested singly) QHLGLSKCNITCSKMTSKIPVALLIHYQQNQASCGKRAIILETRQHRLFCADPKEQWVKDAMQHLDRQAAALTRNG | binds
phage-displayed CX3CL1 mutant with N-terminal sequence QLLGVS (other, not shown: large carriers, Selected phage clone (agonist selection); not tested singly) QLLGVSKCNITCSKMTSKIPVALLIHYQQNQASCGKRAIILETRQHRLFCADPKEQWVKDAMQHLDRQAAALTRNG | binds
phage-displayed CX3CL1 mutant with N-terminal sequence QSLGVS (other, not shown: large carriers, Selected phage clone (agonist selection); not tested singly) QSLGVSKCNITCSKMTSKIPVALLIHYQQNQASCGKRAIILETRQHRLFCADPKEQWVKDAMQHLDRQAAALTRNG | binds
